{"source": "patent US6537765B2", "about": "“GPR10 as a target for identifying weight modulating compounds” (Millennium Pharmaceuticals, Inc., priority 1998, dated 2003)", "key": {"GPR10 [1]": {"molecular_target": "T1, GPR10 (Mus musculus, UniProt Q6VMN6)", "T1 construct": "from tissue; host or cells: brain of living C57BL/6J mice (lean and ob/ob), intracerebroventricular dosing", "T1 sequence (Q6VMN6 1-370)": "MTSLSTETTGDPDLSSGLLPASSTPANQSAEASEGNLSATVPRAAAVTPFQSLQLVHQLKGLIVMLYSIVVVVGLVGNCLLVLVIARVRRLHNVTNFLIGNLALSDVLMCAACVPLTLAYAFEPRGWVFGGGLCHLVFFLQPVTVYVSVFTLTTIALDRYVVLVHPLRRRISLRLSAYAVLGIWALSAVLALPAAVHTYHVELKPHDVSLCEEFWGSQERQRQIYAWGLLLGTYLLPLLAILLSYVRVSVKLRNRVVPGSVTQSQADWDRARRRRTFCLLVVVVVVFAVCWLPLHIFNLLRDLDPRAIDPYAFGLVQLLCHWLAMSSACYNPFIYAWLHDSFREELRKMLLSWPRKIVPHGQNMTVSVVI", "test": "Food intake after intracerebroventricular injection of PrRP in mice", "type": "in vivo", "settings": "0.1, 1, 5, 10 mg PrRP intracerebroventricular vs saline, measured for two hours after treatment", "protocol": "A 31 amino acid amidated synthetic peptide having the sequence of rat PrRP ([…]-NHz; SEQ ID NO:4; Hinuma et al., (1998) Nature 393:272-76) was used to examine the effect of GPR10 modulators on food intake.\nMale and female lean and male obese ob/ob C57BL/6J mice were individually housed in macrolon cages (22±2° C.; 12:12 hr light:dark cycle with lights off at 6 pm). Tap water and mouse chow were given ad libitum. Mice were stereoaxically implanted with a chronic guide cannula aimed to the third ventricle (intracerebroventricular) one week prior to the initiation of the experiment.\nMice (15/group) were treated with […] of PrRP peptide or saline (control) by intracerebroventricular injections at 9:00 am. Food intake was measured for two hours after treatment."}, "GPR10 [2]": {"molecular_target": "T1, GPR10", "test": "Metabolic rate of mice in an open-circuit calorimeter after intracerebroventricular PrRP", "type": "in vivo", "settings": "5 μg PrRP intracerebroventricular vs saline", "protocol": "The effect of a 5 μg dose of PrRP on the metabolic rate of male mice denied or permitted access to food was investigated as follows. Male C57BL/6J mice maintained as described above were placed in an open-circuit calorimeter coupled to a feeding monitor. The mice were administered 5 μg of PrRP or saline intracerebroventricularly at 1 hr and 45 min after the start of metabolic monitoring. One group (n=6) of mice was allowed access to food and one group of mice (n=6) was not allowed access to food. Respiratory quotient was calculated as the ratio of CO2 production/O2 consumption. Metabolic rate (kcal/g/h) was computed based on O2 consumption and respiratory rate quotient."}, "[3]": {"system": "anterior pituitary cells of lactating rats", "settings": "anterior pituitary cells of lactating rats in vitro; cited from earlier work"}, "hGR3": {"molecular_target": "T2, hGR3 (Homo sapiens, UniProt P49683)", "T2 sequence (P49683 1-370)": "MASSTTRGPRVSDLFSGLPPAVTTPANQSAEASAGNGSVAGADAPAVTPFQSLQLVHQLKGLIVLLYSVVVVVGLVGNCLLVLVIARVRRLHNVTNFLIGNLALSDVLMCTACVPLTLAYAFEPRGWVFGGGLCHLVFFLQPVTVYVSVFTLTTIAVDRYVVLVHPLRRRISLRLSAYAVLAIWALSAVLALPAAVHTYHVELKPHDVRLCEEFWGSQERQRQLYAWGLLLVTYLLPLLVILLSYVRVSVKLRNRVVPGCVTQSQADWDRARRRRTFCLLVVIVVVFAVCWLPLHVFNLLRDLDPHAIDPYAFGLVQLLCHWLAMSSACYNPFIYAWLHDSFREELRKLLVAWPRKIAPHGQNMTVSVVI", "settings": "receptor expressed in human pituitary, nearly identical to GPR10; cited from earlier work"}}, "note": "No end group written: not given here."}
{"substance": "PrRP: 31 amino acid amidated synthetic peptide having the sequence of rat PrRP (SRAHQHSMETRTPDINPAWYTGRGIRPVGRF-NHz; SEQ ID NO:4); a GPR10 ligand (SRAHQHSMETRTPDINPAWYTGRGIRPVGRF-NH2; listed as Mus musculus)", "values": [{"measurement": "food intake", "setting": "GPR10 [1]; lean female C57BL/6J mice, FIG. 4", "result": "increased food intake"}, {"measurement": "food intake", "setting": "GPR10 [1]; lean male C57BL/6J mice, FIG. 3", "result": "increased food intake"}, {"measurement": "food intake", "setting": "GPR10 [1]; male obese ob/ob C57BL/6J mice, FIG. 5", "result": "increased food intake"}, {"measurement": "metabolic rate", "setting": "GPR10 [2]; lean male C57BL/6J mice having access to food, FIG. 7", "result": "increases the metabolic rate"}, {"measurement": "metabolic rate", "setting": "GPR10 [2]; lean male C57BL/6J mice having no access to food, FIG. 6", "result": "increases the metabolic rate"}, {"measurement": "release of prolactin", "setting": "[3]", "result": "stimulates release of prolactin"}, {"measurement": "binding to hGR3", "setting": "hGR3", "result": "binds to hGR3"}]}
